Experimental data taken from article PMC6600642.

Experiments:
[1] = target: microtubules (polymerized from unlabeled tubulin, Taxol-stabilised)
[2] = target: microtubules (polymerized from unlabeled tubulin, Taxol-stabilised); remark: listed apart in the source

Sequence of microtubules (polymerized from unlabeled tubulin, Taxol-stabilised) (chain, as listed by the source, chain 1 of 2): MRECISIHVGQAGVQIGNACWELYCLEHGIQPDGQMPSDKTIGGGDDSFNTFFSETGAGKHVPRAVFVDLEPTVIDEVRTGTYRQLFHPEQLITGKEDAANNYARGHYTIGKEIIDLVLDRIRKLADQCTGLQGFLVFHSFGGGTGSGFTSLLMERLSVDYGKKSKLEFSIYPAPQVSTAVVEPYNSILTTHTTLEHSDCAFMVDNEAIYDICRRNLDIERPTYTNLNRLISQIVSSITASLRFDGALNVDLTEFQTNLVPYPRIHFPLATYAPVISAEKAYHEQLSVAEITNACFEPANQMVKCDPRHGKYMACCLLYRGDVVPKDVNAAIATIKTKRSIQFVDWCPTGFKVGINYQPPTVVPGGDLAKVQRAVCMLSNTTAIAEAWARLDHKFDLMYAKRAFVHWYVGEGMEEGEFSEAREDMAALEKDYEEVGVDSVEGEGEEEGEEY
Sequence of microtubules (polymerized from unlabeled tubulin, Taxol-stabilised) (chain, as listed by the source, chain 2 of 2): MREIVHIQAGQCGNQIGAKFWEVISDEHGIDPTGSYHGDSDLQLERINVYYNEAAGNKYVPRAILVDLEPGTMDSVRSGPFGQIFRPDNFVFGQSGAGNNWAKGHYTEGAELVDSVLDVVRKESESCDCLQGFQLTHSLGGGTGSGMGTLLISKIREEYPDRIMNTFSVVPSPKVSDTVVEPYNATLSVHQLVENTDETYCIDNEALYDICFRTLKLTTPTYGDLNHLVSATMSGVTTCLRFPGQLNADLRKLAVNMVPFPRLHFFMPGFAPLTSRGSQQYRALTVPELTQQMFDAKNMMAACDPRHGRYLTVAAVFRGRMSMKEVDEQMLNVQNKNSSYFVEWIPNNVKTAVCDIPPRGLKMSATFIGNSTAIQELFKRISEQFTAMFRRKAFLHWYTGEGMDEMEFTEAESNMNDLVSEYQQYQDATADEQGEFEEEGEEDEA

microtubule-stimulated ATPase activity of monomeric dynein, 0–5 μM microtubules: K M for tubulin dimer [1]: 0.5 µM
microtubule-stimulated ATPase activity of monomeric dynein (second series, beside mutant 14): [MT] K M [2]: 0.42 µM
Substance: Saccharomyces cerevisiae cytoplasmic dynein (Dyn1) 1219-4093, monomeric construct, wild-type, P36022 1219-4092
